For orientation: Kd means a measure of binding affinity in units of concentration. Higher therefore signals lower affinity. What is called koff is the rate constant with which the complex falls apart. One may read the kon as a measure of how fast the partners come together. A higher kon goes with fast association.

Changes are numbered by the printed parent chain. Names and notes keep the numbering of the source.

Here are results for 15 molecules from paper PMC7205207, “Modeling and mitigation of high-concentration antibody viscosity through structure-based computer-aided protein design” (PLoS ONE, 2020).

The chains are these.
B1: AB-001 (antibody, V domains shown)
VH: EVQLLESGGGLVQPGGSLRLSCAASGFTFSSYAMSWVRQAPGKGLEWVSYISDDGSLKYYADSVKGRFTISRDNSKNTLYLQMNSLRAEDTAVYYCAKHPYWYGGQLDLWGQGTLVTVSS
VL: SYELTQPPSVSVSPGQTASITCSGDSLGSYFVHWYQQKPGQSPVLVIYDDSNRPSGIPERFSGSNSGNTATLTISGTQAMDEADYYCSAFTHNSDVFGGGTKLTVL
notes: VH of AB-001; VL of AB-001; only the variable regions are written; also called parental AB-001; parental clone; source: HEK293, transient, purified from conditioned medium (protein A, TMAE, HIC)
B2: R2-001 (antibody, V domains shown)
VH: B1 VH with E6Q, Q13K, K98R
VL: B1 VL with E3V, S13A, Q16K, S19R, N52K
notes: R2-001_HC: as the VH of m17 (R1-016), on which R2-001 was built; R2-001_LC: as the VL of m17 (R1-016) with FW1 changed to that of IGLV3-21*01; only the variable regions are written; also called round 2 parental R2-001; R2-001_HC with R2-001_LC; source: HEK293, transient, purified from conditioned medium (protein A, TMAE, HIC)
B3: R2-006 (antibody, V domains shown)
VH: B1 VH with E6Q, Q13K, K98R
VL: B1 VL with E3V, S13A, Q16K, S19R, S51K, N52K
notes: as the VH of m20 (R2-001_HC); as the VL of m20 (R2-001_LC) with S52K (Kabat); only the variable regions are written; source: HEK293, transient, purified from conditioned medium (protein A, TMAE, HIC)
B4: R1-016 (antibody, V domains shown)
VH: B1 VH with E6Q, Q13K, K98R
VL: B1 VL with N52K
notes: only the variable regions are written; source: HEK293, transient, purified from conditioned medium (protein A, TMAE, HIC)
B5: R2-020 (antibody, V domains shown)
VH: B1 VH with E6Q, Q13K, K98R
VL: B1 VL with E3V, S13A, Q16K, S19R, D50N, N52K
notes: as the VH of m20 (R2-001_HC); as the VL of m20 (R2-001_LC) with D51N (Kabat); only the variable regions are written; source: HEK293, transient, purified from conditioned medium (protein A, TMAE, HIC)
B6: R2-019 (antibody, V domains shown)
VH: B1 VH with E6Q, Q13K, K98R
VL: B1 VL with E3V, S13A, Q16K, S19R, D49L, N52K
notes: as the VH of m20 (R2-001_HC); as the VL of m20 (R2-001_LC) with D50L (Kabat); only the variable regions are written; source: HEK293, transient, purified from conditioned medium (protein A, TMAE, HIC)
B7: R2-016 (antibody, V domains shown)
VH: B1 VH with E6Q, Q13K, K98R, D108N
VL: B1 VL with E3V, S13A, Q16K, S19R, N52K
notes: as the VH of m20 (R2-001_HC) with D101N; as the VL of m20 (R2-001_LC); only the variable regions are written; source: HEK293, transient, purified from conditioned medium (protein A, TMAE, HIC)
B8: R2-015 (antibody, V domains shown)
VH: B1 VH with E6Q, Q13K, D62N, K98R
VL: B1 VL with E3V, S13A, Q16K, S19R, N52K
notes: as the VH of m20 (R2-001_HC) with D61N; as the VL of m20 (R2-001_LC); only the variable regions are written; source: HEK293, transient, purified from conditioned medium (protein A, TMAE, HIC)
B9: R2-022 (antibody, V domains shown)
VH: B1 VH with E6Q, Q13K, K98R
VL: B1 VL with E3V, S13A, Q16K, S19R, N52K, D95N
notes: as the VH of m20 (R2-001_HC); as the VL of m20 (R2-001_LC) with D96N (Kabat); only the variable regions are written; source: HEK293, transient, purified from conditioned medium (protein A, TMAE, HIC)
B10: R2-013 (antibody, V domains shown)
VH: B1 VH with E6Q, Q13K, D53N, K98R
VL: B1 VL with E3V, S13A, Q16K, S19R, N52K
notes: as the VH of m20 (R2-001_HC) with D52aN; as the VL of m20 (R2-001_LC); only the variable regions are written; source: HEK293, transient, purified from conditioned medium (protein A, TMAE, HIC)
B11: R2-018 (antibody, V domains shown)
VH: B1 VH with E6Q, Q13K, K98R
VL: B1 VL with E3V, S13A, Q16K, S19R, D25N, N52K
notes: as the VH of m20 (R2-001_HC); as the VL of m20 (R2-001_LC) with D26N (Kabat); only the variable regions are written; source: HEK293, transient, purified from conditioned medium (protein A, TMAE, HIC)
B12: R2-017 (antibody, V domains shown)
VH: B1 VH with E6Q, Q13K, K98R, D108Y
VL: B1 VL with E3V, S13A, Q16K, S19R, N52K
notes: as the VH of m20 (R2-001_HC) with D101Y; as the VL of m20 (R2-001_LC); only the variable regions are written; source: HEK293, transient, purified from conditioned medium (protein A, TMAE, HIC)
B13: R2-011 (antibody, V domains shown)
VH: B1 VH with E6Q, Q13K, K98R, Q106K
VL: B1 VL with E3V, S13A, Q16K, S19R, N52K
notes: as the VH of m20 (R2-001_HC) with Q100bK; as the VL of m20 (R2-001_LC); only the variable regions are written; source: HEK293, transient, purified from conditioned medium (protein A, TMAE, HIC)
B14: R2-014 (antibody, V domains shown)
VH: B1 VH with E6Q, Q13K, D54Q, K98R
VL: B1 VL with E3V, S13A, Q16K, S19R, N52K
notes: as the VH of m20 (R2-001_HC) with D53Q; as the VL of m20 (R2-001_LC); only the variable regions are written; source: HEK293, transient, purified from conditioned medium (protein A, TMAE, HIC)
B15: R2-012 (antibody, V domains shown)
VH: B1 VH with E6Q, Q13K, D53K, K98R
VL: B1 VL with E3V, S13A, Q16K, S19R, N52K
notes: as the VH of m20 (R2-001_HC) with D52aK; as the VL of m20 (R2-001_LC); only the variable regions are written; source: HEK293, transient, purified from conditioned medium (protein A, TMAE, HIC)

T2 sequence (P01127 82-190): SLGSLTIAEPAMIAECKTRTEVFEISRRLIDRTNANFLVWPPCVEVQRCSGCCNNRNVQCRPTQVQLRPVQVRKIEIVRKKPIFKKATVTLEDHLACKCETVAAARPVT

Biological target in one series: not listed separately
Kind of series: AC-SINS; self-association assay, as in Avery et al. [35]; score = smoothed max absorbance of the antibody sample minus that of the average blank (PBS); scores >=11 considered high. As to conditions: other: AC-SINS.
As to B1, the AC-SINS Score was 22.

For a further series, the target named is T1, human PDGF-BB (platelet derived growth factor B homodimer) (human, UniProt P01127 82-190).
T1 construct: Platelet derived growth factor B, human, homodimer, bought from PeproTech; the printed catalogue number may stand for 100-14B; source: bought: PeproTech, Catalog 100-148
T1 sequence (P01127 82-190): as above
Kind of series: SPR; Biacore T200, full kinetics; antibody captured by anti-human IgG on a CM5 chip; human PDGF-BB at 20, 10, 5, 2.5 and 1.25 nM, 50 s injection; HBS-EP+ N; 25 C; 1:1 Langmuir fit. As to conditions: both partners purified.
B1 registered a Kd of 94.8 ± 29.2 pM, a koff of 0.000457 s⁻¹ and a kon of 5.05e+06 M⁻¹ s⁻¹.

A further series concerns the target T2, human PDGF-BB (platelet derived growth factor B homodimer) (human, UniProt P01127).
T2 construct: Platelet derived growth factor B, human, homodimer, bought from PeproTech; the printed catalogue number may stand for 100-14B; source: bought: PeproTech, Catalog 100-148
The description is as above. The settings on record: both partners purified.
B2 gave a Kd of 102 ± 32.3 pM, a koff of 0.000292 s⁻¹ and a kon of 3.09e+06 M⁻¹ s⁻¹.

Take B3: binding was characterised by a dissociation constant (Kd) of 88.8 ± 29.5 pM, the dissociation rate constant (koff) is 0.000336 s⁻¹ and the kon was 3.97e+06 M⁻¹ s⁻¹.

In the case of B4, the Kd is 74.3 ± 13.7 pM, the koff worked out at 0.000357 s⁻¹ and the on-rate constant (kon) is 4.88e+06 M⁻¹ s⁻¹.

In the case of B5, binding was put at a Kd of 299 ± 6.83 pM, the off-rate constant (koff) came to 0.00061 s⁻¹ and the kon worked out at 2.04e+06 M⁻¹ s⁻¹.

The target of a further series is T1, human PDGF-BB (platelet derived growth …). Kind of series: SPR; Biacore T200, off-rate screen; antibody captured (~70 to 100 RU) by anti-human IgG amine-coupled to a CM5 chip; human PDGF-BB injected at a single 2.5 nM for 170 s, dissociation 300 s; HBS-EP+ N (10 mM HEPES, 500 mM NaCl, 3 mM EDTA, 0.05% Tween20, pH 7.4); 25 C. As to conditions: both partners purified. (In SPR one partner is held on a chip, and binding of the other changes the refractive index at the surface.)
In the case of B1, the koff came out at 0.000319 s⁻¹.

The next series addresses T2, human PDGF-BB (platelet derived growth …). Described as above. As to conditions: both partners purified.
As for B6, the koff was 0.000673 s⁻¹.

In the case of B7, the koff came to 0.000266 s⁻¹.

B8 returned a koff of 0.000834 s⁻¹.

On to B2, for which the koff is 0.000417 s⁻¹.

Turning to B9, the koff came to 0.000361 s⁻¹.

For B10, the koff amounted to 0.000344 s⁻¹.

Take B11: the koff turned out to be 0.000386 s⁻¹.

For the molecule B12, the koff turned out to be 0.000673 s⁻¹.

Consider B13, for which the koff amounted to 0.000414 s⁻¹.

Molecule B3 gave a koff of 0.000366 s⁻¹.

Turning to B14, the koff was 0.000396 s⁻¹.

With B15, the koff was determined as 0.000347 s⁻¹.

For the molecule B4, the koff amounted to 0.000289 s⁻¹.

B5 came in with a koff of 0.000386 s⁻¹.

Another series shares this target. Kind of series: SPR; Biacore T200, full kinetics; antibody captured by anti-human IgG on a CM5 chip; human PDGF-BB at 20, 10, 5, 2.5 and 1.25 nM, 50 s injection; HBS-EP+ N; 25 C; 1:1 Langmuir fit. As to conditions: both partners purified. The source holds these as a separate data set.
As for B3, binding was characterised by a dissociation constant (Kd) of 103 pM.

Tested on in another series: not listed separately
Kind of series: AC-SINS; self-association assay, as in Avery et al. [35]; score = smoothed max absorbance of the antibody sample minus that of the average blank (PBS); scores >=11 considered high. As to conditions: other: AC-SINS. The source holds these as a separate data set.
For B2, the AC-SINS Score is 24.

With B3, the AC-SINS Score came to 25.

As to B4, the AC-SINS Score turned out to be 24.

Consider B5, for which the AC-SINS Score came to 4.
